The values below come from US20190134153A1, “IMMUNOMODULATORY EFFECT OF INHALED KINASE INHIBITOR PEPTIDES IN LUNG” (MOERAE MATRIX, INC., priority 2017, published 2019).

Targets include CDK2/cyclinE(h) (Homo sapiens, UniProt P24941); cKit(D816V)(h) (Homo sapiens, UniProt P10721, D816V); CSK(h) (Homo sapiens, UniProt P41240); JAK2(h) (Homo sapiens, UniProt O60674); CHK2(R145W)(h) (Homo sapiens, UniProt O96017, R145W); EphA4(h) (Homo sapiens, UniProt P54764); Met(D1246H)(h) (Homo sapiens, UniProt P08581, D1228H).
Test in all cases: Kinase Profiling Assay
Holding throughout (format): biochemical
Conditions in all cases: 100 μM

In a further assay the target is T1, SGK(h) (Homo sapiens, UniProt O00141).
T1 sequence (O00141 1-431): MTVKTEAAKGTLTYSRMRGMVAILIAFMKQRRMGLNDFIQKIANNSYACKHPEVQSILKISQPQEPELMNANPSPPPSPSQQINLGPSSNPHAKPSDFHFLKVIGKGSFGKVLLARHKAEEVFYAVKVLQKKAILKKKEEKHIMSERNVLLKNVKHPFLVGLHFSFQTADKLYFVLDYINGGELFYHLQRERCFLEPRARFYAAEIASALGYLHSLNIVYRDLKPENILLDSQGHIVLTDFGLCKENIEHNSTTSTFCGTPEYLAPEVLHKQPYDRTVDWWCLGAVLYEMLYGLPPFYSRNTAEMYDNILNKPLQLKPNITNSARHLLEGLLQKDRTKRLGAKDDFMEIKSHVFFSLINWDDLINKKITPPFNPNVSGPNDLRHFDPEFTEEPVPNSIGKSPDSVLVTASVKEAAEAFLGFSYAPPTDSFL

A further assay addresses T2, ZAP-70(h) (Homo sapiens, UniProt P43403).
T2 sequence (P43403 1-619): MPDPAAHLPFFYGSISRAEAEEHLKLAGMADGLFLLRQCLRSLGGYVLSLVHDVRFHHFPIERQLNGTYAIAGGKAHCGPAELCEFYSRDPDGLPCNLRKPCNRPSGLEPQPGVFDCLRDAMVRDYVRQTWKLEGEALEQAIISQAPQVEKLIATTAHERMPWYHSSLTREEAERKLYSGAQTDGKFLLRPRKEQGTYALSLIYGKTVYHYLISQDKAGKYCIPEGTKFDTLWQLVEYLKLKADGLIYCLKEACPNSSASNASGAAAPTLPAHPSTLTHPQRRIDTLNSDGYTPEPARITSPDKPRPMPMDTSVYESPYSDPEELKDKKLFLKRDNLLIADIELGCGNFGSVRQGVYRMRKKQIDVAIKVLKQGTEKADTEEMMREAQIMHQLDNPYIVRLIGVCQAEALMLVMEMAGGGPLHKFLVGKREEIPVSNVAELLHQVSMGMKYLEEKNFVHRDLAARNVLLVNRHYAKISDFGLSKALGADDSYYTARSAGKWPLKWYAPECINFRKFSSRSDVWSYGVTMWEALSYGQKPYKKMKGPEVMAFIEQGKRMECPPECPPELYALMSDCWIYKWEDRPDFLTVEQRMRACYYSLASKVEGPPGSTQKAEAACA

A further assay addresses T3, ARK5(h) (Homo sapiens, UniProt O60285).
T3 sequence (O60285 1-661): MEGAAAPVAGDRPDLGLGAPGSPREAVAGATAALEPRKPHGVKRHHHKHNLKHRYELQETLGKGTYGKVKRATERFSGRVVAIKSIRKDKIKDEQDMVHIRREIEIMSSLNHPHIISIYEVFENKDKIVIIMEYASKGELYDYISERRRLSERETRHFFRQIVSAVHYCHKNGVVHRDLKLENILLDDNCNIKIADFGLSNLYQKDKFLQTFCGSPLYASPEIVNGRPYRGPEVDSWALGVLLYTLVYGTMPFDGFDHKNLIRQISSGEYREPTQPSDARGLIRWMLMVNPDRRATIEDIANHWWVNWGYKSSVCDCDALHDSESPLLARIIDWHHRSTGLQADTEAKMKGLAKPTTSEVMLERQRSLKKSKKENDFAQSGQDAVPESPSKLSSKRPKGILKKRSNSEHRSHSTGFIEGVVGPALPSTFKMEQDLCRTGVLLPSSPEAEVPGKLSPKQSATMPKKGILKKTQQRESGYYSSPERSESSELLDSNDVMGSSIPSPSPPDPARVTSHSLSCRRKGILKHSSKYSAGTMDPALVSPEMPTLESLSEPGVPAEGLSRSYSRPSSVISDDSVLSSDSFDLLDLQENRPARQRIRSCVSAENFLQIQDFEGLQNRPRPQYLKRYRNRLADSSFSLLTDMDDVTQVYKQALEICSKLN

A further assay has as its target T4, SAPK4(h) (Homo sapiens, UniProt O15264).
T4 sequence (O15264 1-365): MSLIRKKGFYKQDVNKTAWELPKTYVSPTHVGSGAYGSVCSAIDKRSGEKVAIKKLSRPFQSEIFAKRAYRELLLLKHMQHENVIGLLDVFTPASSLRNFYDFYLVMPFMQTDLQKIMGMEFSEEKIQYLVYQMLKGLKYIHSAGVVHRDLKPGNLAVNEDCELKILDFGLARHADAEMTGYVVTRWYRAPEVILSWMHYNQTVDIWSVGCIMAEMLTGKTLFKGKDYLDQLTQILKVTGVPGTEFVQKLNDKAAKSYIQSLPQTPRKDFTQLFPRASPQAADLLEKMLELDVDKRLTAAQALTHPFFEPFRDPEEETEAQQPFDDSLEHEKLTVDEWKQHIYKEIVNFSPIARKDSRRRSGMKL

Sequence of CHK2(R145W)(h) (O96017 whole entry R145W): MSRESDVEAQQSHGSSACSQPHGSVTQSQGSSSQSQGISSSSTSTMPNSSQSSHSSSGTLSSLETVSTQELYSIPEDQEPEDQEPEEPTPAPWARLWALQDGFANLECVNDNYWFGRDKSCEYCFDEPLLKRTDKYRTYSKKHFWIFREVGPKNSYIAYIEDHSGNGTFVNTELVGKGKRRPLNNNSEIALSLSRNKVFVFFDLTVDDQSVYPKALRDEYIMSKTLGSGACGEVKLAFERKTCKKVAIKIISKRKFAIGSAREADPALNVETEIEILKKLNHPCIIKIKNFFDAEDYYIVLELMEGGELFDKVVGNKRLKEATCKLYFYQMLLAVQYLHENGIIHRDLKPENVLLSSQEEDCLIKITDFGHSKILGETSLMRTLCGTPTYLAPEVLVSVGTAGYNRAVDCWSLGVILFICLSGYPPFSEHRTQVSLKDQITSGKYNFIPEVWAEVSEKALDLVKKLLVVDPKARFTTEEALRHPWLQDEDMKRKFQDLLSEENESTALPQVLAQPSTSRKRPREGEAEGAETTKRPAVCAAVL
Sequence of CSK(h) (P41240 whole entry): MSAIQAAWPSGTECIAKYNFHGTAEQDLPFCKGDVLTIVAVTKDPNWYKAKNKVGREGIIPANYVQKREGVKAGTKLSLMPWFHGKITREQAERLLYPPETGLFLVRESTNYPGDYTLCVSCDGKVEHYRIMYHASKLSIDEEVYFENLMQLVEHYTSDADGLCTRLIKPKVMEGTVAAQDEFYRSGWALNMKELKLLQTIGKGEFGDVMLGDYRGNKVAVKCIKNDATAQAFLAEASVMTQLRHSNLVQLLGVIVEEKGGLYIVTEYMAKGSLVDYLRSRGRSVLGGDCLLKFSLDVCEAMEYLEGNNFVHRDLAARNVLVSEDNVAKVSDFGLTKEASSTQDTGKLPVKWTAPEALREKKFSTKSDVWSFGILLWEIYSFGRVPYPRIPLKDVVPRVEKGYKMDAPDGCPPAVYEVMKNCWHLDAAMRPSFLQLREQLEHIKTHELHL
Sequence of JAK2(h) (O60674 whole entry): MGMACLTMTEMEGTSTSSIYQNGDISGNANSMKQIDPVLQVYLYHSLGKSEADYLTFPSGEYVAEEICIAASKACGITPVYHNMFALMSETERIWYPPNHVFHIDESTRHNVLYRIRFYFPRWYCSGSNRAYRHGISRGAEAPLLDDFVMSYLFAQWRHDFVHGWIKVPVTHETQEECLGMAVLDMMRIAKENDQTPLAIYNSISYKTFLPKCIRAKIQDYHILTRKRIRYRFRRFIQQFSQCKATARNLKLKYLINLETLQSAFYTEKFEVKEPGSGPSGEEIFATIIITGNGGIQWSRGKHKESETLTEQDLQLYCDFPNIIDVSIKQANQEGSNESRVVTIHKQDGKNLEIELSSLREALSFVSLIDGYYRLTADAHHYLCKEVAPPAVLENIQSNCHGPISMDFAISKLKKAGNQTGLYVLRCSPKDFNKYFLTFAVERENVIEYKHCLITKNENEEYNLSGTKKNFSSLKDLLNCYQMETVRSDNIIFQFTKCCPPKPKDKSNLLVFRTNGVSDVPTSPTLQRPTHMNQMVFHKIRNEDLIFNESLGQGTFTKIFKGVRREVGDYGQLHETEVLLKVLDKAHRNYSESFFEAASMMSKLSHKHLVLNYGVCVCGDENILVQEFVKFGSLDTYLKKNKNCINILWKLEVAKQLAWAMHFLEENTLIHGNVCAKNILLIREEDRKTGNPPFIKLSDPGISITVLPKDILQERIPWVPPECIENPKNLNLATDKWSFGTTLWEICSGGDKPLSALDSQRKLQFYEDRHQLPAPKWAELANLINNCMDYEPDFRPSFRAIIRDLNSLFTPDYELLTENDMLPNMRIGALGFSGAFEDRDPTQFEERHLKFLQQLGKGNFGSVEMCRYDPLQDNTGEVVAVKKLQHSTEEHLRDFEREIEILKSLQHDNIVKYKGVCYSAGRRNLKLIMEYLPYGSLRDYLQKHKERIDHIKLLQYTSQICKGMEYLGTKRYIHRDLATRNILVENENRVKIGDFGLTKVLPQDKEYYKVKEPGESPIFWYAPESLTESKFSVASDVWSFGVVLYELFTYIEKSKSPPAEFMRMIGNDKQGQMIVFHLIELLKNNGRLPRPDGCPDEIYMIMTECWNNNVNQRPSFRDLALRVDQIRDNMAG
Sequence of EphA4(h) (P54764 20-986): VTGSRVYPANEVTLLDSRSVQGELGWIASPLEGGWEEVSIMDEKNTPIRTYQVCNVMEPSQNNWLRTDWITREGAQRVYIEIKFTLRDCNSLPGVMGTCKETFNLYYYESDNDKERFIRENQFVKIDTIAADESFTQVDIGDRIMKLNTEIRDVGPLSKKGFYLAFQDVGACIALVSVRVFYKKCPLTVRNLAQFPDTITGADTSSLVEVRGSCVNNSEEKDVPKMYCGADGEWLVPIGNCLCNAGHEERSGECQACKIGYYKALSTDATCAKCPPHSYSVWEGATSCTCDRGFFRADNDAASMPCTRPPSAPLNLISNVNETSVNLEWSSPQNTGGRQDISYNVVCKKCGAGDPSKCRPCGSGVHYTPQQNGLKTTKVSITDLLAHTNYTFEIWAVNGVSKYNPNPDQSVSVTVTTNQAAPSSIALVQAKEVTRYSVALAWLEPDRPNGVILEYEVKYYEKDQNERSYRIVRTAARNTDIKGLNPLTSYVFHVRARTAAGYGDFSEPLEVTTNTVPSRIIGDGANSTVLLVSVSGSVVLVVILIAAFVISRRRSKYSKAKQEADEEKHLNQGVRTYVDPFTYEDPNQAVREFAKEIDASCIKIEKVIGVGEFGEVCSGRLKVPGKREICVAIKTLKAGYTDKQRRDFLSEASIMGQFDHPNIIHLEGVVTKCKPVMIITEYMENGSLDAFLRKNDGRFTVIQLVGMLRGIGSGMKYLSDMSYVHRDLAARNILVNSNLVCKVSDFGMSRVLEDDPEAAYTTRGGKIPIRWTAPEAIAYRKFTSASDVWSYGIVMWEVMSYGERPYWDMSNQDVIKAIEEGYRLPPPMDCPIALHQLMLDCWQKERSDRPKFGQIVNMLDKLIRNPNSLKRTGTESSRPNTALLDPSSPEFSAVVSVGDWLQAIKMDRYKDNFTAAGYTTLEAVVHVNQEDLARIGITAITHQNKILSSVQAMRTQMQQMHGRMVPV

In the case of HRRIKAWLKKIKALARQLGVAA [MMI-0500], the “% activity” value came to 19% in the assay with CDK2/cyclinE(h); 30% with cKit(D816V)(h); 2% in the assay with CSK(h); 49% in the assay with JAK2(h); 2% with SGK(h); 1% with ZAP-70(h). The “% activity” value with ARK5(h) was 20%; in the assay with SAPK4(h) it was 48%; in the assay with CHK2(R145W)(h), 3%; with EphA4(h), 48%; in the assay with Met(D1246H)(h), 150%.

On to YARAAARQARAKALNRQLGVA [MMI-0200], for which the “% activity” value in the assay with cKit(D816V)(h) is 118%; with CSK(h) it was 33%; with JAK2(h), 131%; in the assay with ZAP-70(h) it was 58%; in the assay with ARK5(h) it was 93%; in the assay with CHK2(R145W)(h), 81%. The “% activity” value with EphA4(h) was determined as 127%; with Met(D1246H)(h) it was 139%.

Consider KAFAKLAARLYRKALARQLGVAA [MMI-0400], for which the “% activity” value with CDK2/cyclinE(h) is listed as 83%; with cKit(D816V)(h) it was 35%; with CSK(h), 16%; in the assay with SGK(h) it was 54%; with ZAP-70(h), 33%; with ARK5(h), 69%. Further, the “% activity” value amounted to 91% in the assay with SAPK4(h), 31% with CHK2(R145W)(h), 65% with EphA4(h) and 68% with Met(D1246H)(h).

FAKLAARLYRKALARQLGVAA [MMI-0300]: the “% activity” value in the assay with CDK2/cyclinE(h) is 94%; in the assay with cKit(D816V)(h), 60%; in the assay with CSK(h), 49%; with JAK2(h), 133%; with SGK(h), 48%; with ZAP-70(h), 75%. The “% activity” value with ARK5(h) was 78%; in the assay with SAPK4(h), 96%; with CHK2(R145W)(h), 33%; with EphA4(h) it was 88%; with Met(D1246H)(h), 125%.
